Test results as given in publication PMC9462479 (2022).

B1: myc-tagged human ARMC5 (pcDNA3.1-myc-hARMC5), wild type [human] / FLAG-SREBF1(N), N-terminus of mouse SREBF1, from pcDNA3.1-FLAG-Srebf1(N) in HEK293T [mouse] (parent complex)
chain 1: MAAAKPTLTDSLSFCLAQLAAAAGEALGGEKDPATNETPLSRALLALRTRHIKAAGGIERFRARGGLRPLLALLRRAAAAGSAPSQAGPGSAPSSAASGASSPAPASGPAPSAVSSSSPTPPVRLRKTLDLALSILADCCTEGACRTEVRRLGGILPLVTILQCMKTDSIQNRTARALGNLAMEPESCGDIHCAGAVPLLVESLTACQDSQCLQSVVRALRNLADSPQHRLALAQQGAVRPLAELLATAPDAALTLALVRALLELSRGCSRACAEQLSLGGGLGPLVSLASHPKRAVREGTILILANLCAQGLIRPALGNAGGVEVLVDELRQRRDPNGASPTSQQPLVRAVCLLCREAINRARLRDAGGLDLLMGLLRDPRASAWHPRIVAALVGFLYDTGALGRLQALGLVPLLAGQLCGEAGEEEEEGREAASWDFPEERTPERAQGGSFRSLRSWLISEGYATGPDDISPDWSPEQCPPEPMEPASPAPTPTSLRAPRTQRTPGRSPAAAIEEPWGREGPALLLLSRFSQAPDPSGALVTGPALYGLLTYVTGAPGPPSPRALRILSRLTCNPACLEAFVRSYGAALLRAWLVLGVAPDDWPAPRARPTLHSRHRELGERLLQNLTVQAESPFGVGALTHLLLSGSPEDRVACALTLPFICRKPSLWRRLLLEQGGLRLLLAALTRPAPHPLFLFFAADSLSCLQDLVSPTVSPAVPQAVPMDLDSPSPCLYEPLLGPAPVPAPDLHFLLDSGLQLPAQRAASATASPFFRALLSGSFAEAQMDLVPLRGLSPGAAWPVLHHLHGCRGCGAALGPVPPPGQPLLGSEAEEALEAAGRFLLPGLEEELEEAVGRIHLGPQGGPESVGEVFRLGRPRLAAHCARWTLGSEQCPRKRGLALVGLVEAAGEEAGPLTEALLAVVMGIELGARVPA
chain 2: DELAFGEAALEQTLAEMCELDTAVLNDIEDMLQLINNQDSDFPGLFDAPYAGGETGDTGPSSPGANSPESFSSASLASSLEAFLGGPKVTPAPLSPPPSAPAALKMYPSVSPFSPGPGIKEEPVPLTILQPAAPQPSPGTLLPPSFPAPPVQLSPAPVLGYSSLPSGFSGTLPGNTQQPPSSLPLAPAPGVLPTPALHTQVQSLASQQPLPASAAPRTNTVTSQVQQVPVVLQPHFIKADSLLLTAVKTDAGATVKTAGISTLAPGTAVQAGPLQTLVSGGTILATVPLVVDTDKLPIHRLAAGSKALGSAQSRGEKRTAHNAIEKRYRSSINDKIVELKDLVVGTEAKLNKSAVLRKAIDYIRFLQHSNQKLKQENLTLRSAHKSKSLKDLVSACGSGGGTDVSMEGMKPEVVETLTPPPSDAGSPSQSSPLSFGSRASSSGGSDSEPDSP

Variants of: B1
Assay: co-immunoprecipitation (anti-FLAG IP) with western blot densitometry; HEK293T cells; n = 3; read off a plot

response [A.U.]	Variant
~0.3	chain 1 R898W
~0.075	chain 1 R362L

The next lines start with the variant.

Variant	response [A.U.]
chain 1 L331P	~0.12
chain 1 L754P	~0.31
chain 1 R315W	~0.12
